# Measured values reported in paper PMC7020344.
# Biological target: Pyruvate kinase M2 isoform (human (endogenous in A549)) (UniProt P14618)
# Assay: cross-linking; A549 cells washed with PBS pH 8.0 and treated with BS3 for 1 h at room temperature before lysis in loading buffer; dimers and tetramers by immunoblot; cells with eEF2K depletion, overexpression or A484954
# Pyruvate kinase M2 isoform, P14618 1-531 (enzyme; other documents disagree on this pair), sequence (P14618 whole entry, canonical isoform): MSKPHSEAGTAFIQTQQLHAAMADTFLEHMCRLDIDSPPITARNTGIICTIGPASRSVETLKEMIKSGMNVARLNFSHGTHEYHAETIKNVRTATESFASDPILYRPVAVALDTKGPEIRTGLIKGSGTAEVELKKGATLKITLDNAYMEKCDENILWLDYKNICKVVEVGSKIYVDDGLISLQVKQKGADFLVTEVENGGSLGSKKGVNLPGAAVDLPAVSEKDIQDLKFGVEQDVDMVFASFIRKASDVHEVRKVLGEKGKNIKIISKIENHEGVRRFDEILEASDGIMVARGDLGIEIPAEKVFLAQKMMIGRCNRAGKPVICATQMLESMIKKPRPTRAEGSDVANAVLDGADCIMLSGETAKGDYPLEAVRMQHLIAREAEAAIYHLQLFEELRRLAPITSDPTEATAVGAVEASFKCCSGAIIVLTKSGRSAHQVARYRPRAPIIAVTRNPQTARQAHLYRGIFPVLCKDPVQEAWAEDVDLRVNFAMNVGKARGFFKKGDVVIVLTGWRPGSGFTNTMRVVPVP
substance,measurement,value
"Pyruvate kinase M2 isoform, P14618 1-531 (enzyme; other documents disagree on this pair)",stoichiometry N,2
